We go through two substances from PMC9826837.

Where two headings read alike, the source gives them in different places.

The Kd is the equilibrium constant for the complex coming apart. In general, stoichiometry N refers to a count of units in the complex or per binding partner.

Assay [1] addresses Ser22/23 bisphosphorylated rat cardiac troponin complex (cTn-2P), Alexa647-labelled (rat) (UniProt Q4PP99). Briefly: MST.
In assay [2] the target is nonphosphorylated rat cardiac troponin complex (cTn-0P), Alexa647-labelled (rat) (UniProt Q4PP99). The experiment in a line: MST.
Assay [3] addresses N-terminal lobe of cardiac troponin C (NcTnC), Alexa647-labelled. Briefly: MST.
The target in assay [4] is Ser22/23 bisphosphorylated rat cardiac troponin complex (cTn-2P), Alexa647-labelled (rat) (UniProt Q4PP99). Briefly: MST. The source holds these as a separate data set.
For assay [5], the target named is nonphosphorylated rat cardiac troponin complex (cTn-0P), Alexa647-labelled (rat) (UniProt Q4PP99). Briefly: MST. The source holds these as a separate data set.
Assay [6] deals with rat cardiac troponin T (cTnT) (rat) (UniProt P50753). The experiment in a line: SEC-MALS.

For the substance “nonphosphorylated N-terminal fragment of rat cMyBP-C encompassing domains C0, C1, m-motif and C2 (cC0C2-0P) (domain or fragment)”, the Kd in assay [1] amounted to 20 µM; in assay [2], 20 µM; in assay [3], 5 µM; in assay [4], 20 µM; in assay [5], 20 µM.

For “rat cardiac troponin C (cTnC) (from UniProt Q4PP99 1-161) (natural protein)”, the stoichiometry N in assay [6] worked out at 1.
